Target: human large conductance voltage- and calcium-activated potassium channel (hBK) (human) (UniProt Q12791)
Assay: cryo-EM structure; random spherically constrained (RSC) single-particle cryo-EM of hBK reconstituted into POPC liposomes, without Ca2+ (20 mM HEPES pH 7.4, 150 mM KCl, 2 mM EDTA); map with C2 symmetry at 3.48 Å

human large conductance voltage- and calcium-activated potassium channel (hBK), Q12791 1-1236 (natural protein; other documents disagree on this pair), sequence (Q12791 whole entry): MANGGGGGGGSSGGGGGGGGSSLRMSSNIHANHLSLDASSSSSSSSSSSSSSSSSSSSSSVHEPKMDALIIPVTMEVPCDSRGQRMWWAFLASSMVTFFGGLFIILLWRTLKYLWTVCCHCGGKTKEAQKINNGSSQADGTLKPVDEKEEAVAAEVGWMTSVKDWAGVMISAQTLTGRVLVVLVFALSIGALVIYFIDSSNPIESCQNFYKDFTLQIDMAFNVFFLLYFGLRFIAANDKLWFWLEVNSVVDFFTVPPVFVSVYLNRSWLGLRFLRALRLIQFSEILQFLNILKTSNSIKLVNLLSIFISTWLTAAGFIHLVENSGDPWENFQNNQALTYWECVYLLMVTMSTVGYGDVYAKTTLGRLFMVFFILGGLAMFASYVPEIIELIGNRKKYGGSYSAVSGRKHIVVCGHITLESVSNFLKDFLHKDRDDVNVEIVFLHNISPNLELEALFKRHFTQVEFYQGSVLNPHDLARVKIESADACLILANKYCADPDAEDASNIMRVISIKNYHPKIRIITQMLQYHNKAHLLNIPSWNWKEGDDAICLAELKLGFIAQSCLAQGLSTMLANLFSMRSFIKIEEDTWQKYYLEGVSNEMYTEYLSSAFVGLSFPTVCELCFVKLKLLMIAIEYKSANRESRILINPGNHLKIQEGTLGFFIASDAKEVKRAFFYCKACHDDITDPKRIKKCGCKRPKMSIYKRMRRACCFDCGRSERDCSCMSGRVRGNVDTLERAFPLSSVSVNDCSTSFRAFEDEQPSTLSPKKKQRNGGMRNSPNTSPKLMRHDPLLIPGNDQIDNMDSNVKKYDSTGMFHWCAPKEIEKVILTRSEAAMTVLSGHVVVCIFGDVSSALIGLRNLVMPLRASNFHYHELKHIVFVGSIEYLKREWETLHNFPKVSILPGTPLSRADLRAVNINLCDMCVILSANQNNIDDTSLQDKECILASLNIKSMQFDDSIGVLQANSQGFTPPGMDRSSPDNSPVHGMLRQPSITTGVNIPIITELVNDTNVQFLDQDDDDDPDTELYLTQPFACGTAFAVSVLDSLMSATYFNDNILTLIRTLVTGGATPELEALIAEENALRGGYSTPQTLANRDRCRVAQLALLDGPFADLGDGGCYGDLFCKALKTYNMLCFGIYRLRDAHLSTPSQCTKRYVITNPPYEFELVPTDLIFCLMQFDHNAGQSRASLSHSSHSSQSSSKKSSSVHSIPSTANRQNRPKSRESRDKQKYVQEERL

stoichiometry N: 4
Substance: human large conductance voltage- and calcium-activated potassium channel (hBK), Q12791 1-1236 (natural protein; other documents disagree on this pair)

Reference: PMC9414842
